Measured values reported in doi:10.1101/2023.03.09.531992.

Legend:
[1] = target: clientized GST-S tail construct Thr1273Asp (SARS-CoV-2 S, Leu1244 to Thr1273) (SARS-CoV-2) (UniProt P0DTC2); assay: pull-down
[2] = target: clientized GST-S tail construct Thr1273Glu (SARS-CoV-2 S, Leu1244 to Thr1273) (SARS-CoV-2) (UniProt P0DTC2); assay: pull-down

Work on “endogenous coatomer complex (COPI), mouse liver cytosol, Q8CIE6;Q9JIF7;O55029;Q9QZE5;Q5XJY5;O89079;P61924” yielded a fold binding against the Lys-x-Lys-x-xCT dibasic mutant [1] of 2 fold, a fold higher affinity than the wild-type GST-S tail construct [1] of 17 fold and a fold binding against the Lys-x-Lys-x-xCT dibasic mutant [2] of 2 fold. It also gave a fold higher affinity than the wild-type GST-S tail construct [2] of 17 fold.
